{
  "source": "paper PMC9482650",
  "about": "“Quantitative fragmentomics allow affinity mapping of interactomes” (Nature Communications, 2022)",
  "data": [
    {"molecular_target": "T1, DFNB31_2, Q9P202", "T1 sequence (Q9P202 274-371, limits assumed, looked up)": "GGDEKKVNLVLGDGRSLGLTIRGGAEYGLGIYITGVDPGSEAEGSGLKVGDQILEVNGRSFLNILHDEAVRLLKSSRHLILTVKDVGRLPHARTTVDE", "assay": "holdup assay", "set-up": "key: below the threshold = too weak to quantify, mostly under pKd 3.1 to 4", "conditions": "plain residues with an end cap or a label only (N-terminal biotin on a linker: ado-ado)", "values": [
      {"binder": "RQKEVRESKC", "note": "[SCN8A, Q9UQD0]", "pKd": 4.37}
    ]},
    {"molecular_target": "T2, DFNB31_3, Q9P202", "T2 sequence (Q9P202 811-907, limits assumed, looked up)": "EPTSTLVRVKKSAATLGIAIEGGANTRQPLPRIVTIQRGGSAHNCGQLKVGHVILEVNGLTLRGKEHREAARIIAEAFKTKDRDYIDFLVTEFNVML", "assay": "holdup assay", "set-up": "key: below the threshold = too weak to quantify, mostly under pKd 3.1 to 4", "conditions": "plain residues with an end cap or a label only (N-terminal biotin on a linker: ado-ado)", "values": [
      {"binder": "RQKEVRESKC", "note": "[SCN8A, Q9UQD0]", "pKd": 3.95}
    ]},
    {"molecular_target": "DLG1_1, Q12959", "assay": "holdup assay", "set-up": "key: below the threshold = too weak to quantify, mostly under pKd 3.1 to 4", "conditions": "plain residues with an end cap or a label only (N-terminal biotin on a linker: ado-ado)", "values": [
      {"binder": "RQKEVRESKC", "note": "[SCN8A, Q9UQD0]", "pKd": "below the threshold"}
    ]},
    {"molecular_target": "T3, DLG3_3, Q92796", "T3 sequence (Q92796 374-475, limits assumed, looked up)": "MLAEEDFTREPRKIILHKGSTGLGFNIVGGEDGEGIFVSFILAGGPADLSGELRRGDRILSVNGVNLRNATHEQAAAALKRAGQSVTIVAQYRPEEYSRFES", "assay": "holdup assay", "set-up": "key: below the threshold = too weak to quantify, mostly under pKd 3.1 to 4", "conditions": "plain residues with an end cap or a label only (N-terminal biotin on a linker: ado-ado)", "values": [
      {"binder": "RQKEVRESKC", "note": "[SCN8A, Q9UQD0]", "pKd": 3.58}
    ]},
    {"molecular_target": "T4, DVL3, Q92997", "T4 sequence (Q92997 244-331, limits assumed, looked up)": "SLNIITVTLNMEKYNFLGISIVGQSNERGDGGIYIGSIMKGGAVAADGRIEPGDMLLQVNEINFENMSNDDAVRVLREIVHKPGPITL", "assay": "holdup assay", "set-up": "key: below the threshold = too weak to quantify, mostly under pKd 3.1 to 4", "conditions": "plain residues with an end cap or a label only (N-terminal biotin on a linker: ado-ado)", "values": [
      {"binder": "RQKEVRESKC", "note": "[SCN8A, Q9UQD0]", "pKd": "below the threshold"}
    ]},
    {"molecular_target": "FRMPD3, Q5JV73", "sequence (Q5JV73 12-100)": "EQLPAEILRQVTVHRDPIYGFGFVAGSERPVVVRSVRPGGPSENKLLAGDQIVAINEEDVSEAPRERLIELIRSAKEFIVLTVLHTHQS", "assay": "holdup assay", "set-up": "key: below the threshold = too weak to quantify, mostly under pKd 3.1 to 4", "conditions": "plain residues with an end cap or a label only (N-terminal biotin on a linker: ado-ado)", "values": [
      {"binder": "RQKEVRESKC", "note": "[SCN8A, Q9UQD0]", "pKd": "below the threshold"}
    ]},
    {"molecular_target": "T5, GRIP1_5, Q9Y3R0", "T5 sequence (Q9Y3R0 568-668, limits assumed, looked up)": "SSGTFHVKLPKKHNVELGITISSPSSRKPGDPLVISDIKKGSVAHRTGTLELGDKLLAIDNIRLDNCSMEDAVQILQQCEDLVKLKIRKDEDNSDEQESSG", "assay": "holdup assay", "set-up": "key: below the threshold = too weak to quantify, mostly under pKd 3.1 to 4", "conditions": "plain residues with an end cap or a label only (N-terminal biotin on a linker: ado-ado)", "values": [
      {"binder": "RQKEVRESKC", "note": "[SCN8A, Q9UQD0]", "pKd": "below the threshold"}
    ]},
    {"molecular_target": "T6, GRIP1_7, Q9Y3R0", "T6 sequence (Q9Y3R0 999-1096, limits assumed, looked up)": "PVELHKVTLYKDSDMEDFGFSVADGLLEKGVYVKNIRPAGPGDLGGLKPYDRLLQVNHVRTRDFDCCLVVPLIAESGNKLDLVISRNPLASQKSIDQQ", "assay": "holdup assay", "set-up": "key: below the threshold = too weak to quantify, mostly under pKd 3.1 to 4", "conditions": "plain residues with an end cap or a label only (N-terminal biotin on a linker: ado-ado)", "values": [
      {"binder": "RQKEVRESKC", "note": "[SCN8A, Q9UQD0]", "pKd": "below the threshold"}
    ]},
    {"molecular_target": "GRIP2_6, Q9C0E4", "sequence (Q9C0E4 648-740)": "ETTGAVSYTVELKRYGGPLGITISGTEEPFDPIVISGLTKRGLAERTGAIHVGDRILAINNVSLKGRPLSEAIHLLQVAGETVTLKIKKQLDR", "assay": "holdup assay", "set-up": "key: below the threshold = too weak to quantify, mostly under pKd 3.1 to 4", "conditions": "plain residues with an end cap or a label only (N-terminal biotin on a linker: ado-ado)", "values": [
      {"binder": "RQKEVRESKC", "note": "[SCN8A, Q9UQD0]", "pKd": "below the threshold"}
    ]},
    {"molecular_target": "IL16_3, Q14005", "sequence (Q14005 1107-1207)": "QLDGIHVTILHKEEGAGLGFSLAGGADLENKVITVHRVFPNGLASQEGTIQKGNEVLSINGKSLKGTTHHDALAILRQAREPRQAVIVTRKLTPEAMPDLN", "assay": "holdup assay", "set-up": "key: below the threshold = too weak to quantify, mostly under pKd 3.1 to 4", "conditions": "plain residues with an end cap or a label only (N-terminal biotin on a linker: ado-ado)", "values": [
      {"binder": "RQKEVRESKC", "note": "[SCN8A, Q9UQD0]", "pKd": "below the threshold"}
    ]},
    {"molecular_target": "Inadl_4, Q8NI35", "sequence (Q8NI35 547-651)": "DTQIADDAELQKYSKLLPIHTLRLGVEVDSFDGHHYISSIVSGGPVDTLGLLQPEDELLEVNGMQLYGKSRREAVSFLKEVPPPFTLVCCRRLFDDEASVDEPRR", "assay": "holdup assay", "set-up": "key: below the threshold = too weak to quantify, mostly under pKd 3.1 to 4", "conditions": "plain residues with an end cap or a label only (N-terminal biotin on a linker: ado-ado)", "values": [
      {"binder": "RQKEVRESKC", "note": "[SCN8A, Q9UQD0]", "pKd": "below the threshold"}
    ]},
    {"molecular_target": "LIMK2, P53671", "sequence (P53671 143-248)": "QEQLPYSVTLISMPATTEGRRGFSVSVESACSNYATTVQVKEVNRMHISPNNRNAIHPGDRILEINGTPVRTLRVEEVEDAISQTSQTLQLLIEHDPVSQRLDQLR", "assay": "holdup assay", "set-up": "key: below the threshold = too weak to quantify, mostly under pKd 3.1 to 4", "conditions": "plain residues with an end cap or a label only (N-terminal biotin on a linker: ado-ado)", "values": [
      {"binder": "RQKEVRESKC", "note": "[SCN8A, Q9UQD0]", "pKd": "below the threshold"}
    ]},
    {"molecular_target": "T7, LIN7C, Q9NUP9", "T7 sequence (Q9NUP9 88-185, limits assumed, looked up)": "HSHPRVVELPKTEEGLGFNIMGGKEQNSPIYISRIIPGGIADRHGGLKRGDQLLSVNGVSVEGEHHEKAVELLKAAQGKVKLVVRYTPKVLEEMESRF", "assay": "holdup assay", "set-up": "key: below the threshold = too weak to quantify, mostly under pKd 3.1 to 4", "conditions": "plain residues with an end cap or a label only (N-terminal biotin on a linker: ado-ado)", "values": [
      {"binder": "RQKEVRESKC", "note": "[SCN8A, Q9UQD0]", "pKd": 3.84}
    ]},
    {"molecular_target": "LNX1_1, Q8TBB1", "sequence (Q8TBB1 261-371)": "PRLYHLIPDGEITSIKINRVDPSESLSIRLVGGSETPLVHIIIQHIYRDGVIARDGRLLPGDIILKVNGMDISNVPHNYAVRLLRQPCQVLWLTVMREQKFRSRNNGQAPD", "assay": "holdup assay", "set-up": "key: below the threshold = too weak to quantify, mostly under pKd 3.1 to 4", "conditions": "plain residues with an end cap or a label only (N-terminal biotin on a linker: ado-ado)", "values": [
      {"binder": "RQKEVRESKC", "note": "[SCN8A, Q9UQD0]", "pKd": "below the threshold"}
    ]},
    {"molecular_target": "T8, LNX2_2, Q8N448", "T8 sequence (Q8N448 334-432, limits assumed, looked up)": "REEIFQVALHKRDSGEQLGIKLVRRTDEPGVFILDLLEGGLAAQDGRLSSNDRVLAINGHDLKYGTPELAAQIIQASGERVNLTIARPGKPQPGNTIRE", "assay": "holdup assay", "set-up": "key: below the threshold = too weak to quantify, mostly under pKd 3.1 to 4", "conditions": "plain residues with an end cap or a label only (N-terminal biotin on a linker: ado-ado)", "values": [
      {"binder": "RQKEVRESKC", "note": "[SCN8A, Q9UQD0]", "pKd": "below the threshold"}
    ]},
    {"molecular_target": "T9, LNX2_3, Q8N448", "T9 sequence (Q8N448 463-564, limits assumed, looked up)": "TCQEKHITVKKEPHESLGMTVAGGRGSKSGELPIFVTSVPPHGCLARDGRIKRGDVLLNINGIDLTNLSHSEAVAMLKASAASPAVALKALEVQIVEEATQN", "assay": "holdup assay", "set-up": "key: below the threshold = too weak to quantify, mostly under pKd 3.1 to 4", "conditions": "plain residues with an end cap or a label only (N-terminal biotin on a linker: ado-ado)", "values": [
      {"binder": "RQKEVRESKC", "note": "[SCN8A, Q9UQD0]", "pKd": "below the threshold"}
    ]},
    {"molecular_target": "MAGI1_2, Q96QZ7", "sequence (Q96QZ7 456-580)": "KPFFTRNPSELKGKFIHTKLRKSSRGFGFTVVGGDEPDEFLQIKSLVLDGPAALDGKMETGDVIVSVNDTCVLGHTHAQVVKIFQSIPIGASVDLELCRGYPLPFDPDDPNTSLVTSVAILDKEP", "assay": "holdup assay", "set-up": "key: below the threshold = too weak to quantify, mostly under pKd 3.1 to 4", "conditions": "plain residues with an end cap or a label only (N-terminal biotin on a linker: ado-ado)", "values": [
      {"binder": "RQKEVRESKC", "note": "[SCN8A, Q9UQD0]", "pKd": 3.67}
    ]},
    {"molecular_target": "MAGI2_3, Q86UL8", "sequence (Q86UL8 600-682)": "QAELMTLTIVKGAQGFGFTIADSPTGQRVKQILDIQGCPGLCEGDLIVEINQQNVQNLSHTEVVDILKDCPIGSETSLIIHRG", "assay": "holdup assay", "set-up": "key: below the threshold = too weak to quantify, mostly under pKd 3.1 to 4", "conditions": "plain residues with an end cap or a label only (N-terminal biotin on a linker: ado-ado)", "values": [
      {"binder": "RQKEVRESKC", "note": "[SCN8A, Q9UQD0]", "pKd": 3.51}
    ]},
    {"molecular_target": "T10, MPP2, Q14168", "T10 sequence (Q14168 180-250, limits assumed, looked up)": "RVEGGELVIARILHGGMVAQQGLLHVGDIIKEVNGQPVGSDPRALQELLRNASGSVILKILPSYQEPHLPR", "assay": "holdup assay", "set-up": "key: below the threshold = too weak to quantify, mostly under pKd 3.1 to 4", "conditions": "plain residues with an end cap or a label only (N-terminal biotin on a linker: ado-ado)", "values": [
      {"binder": "RQKEVRESKC", "note": "[SCN8A, Q9UQD0]", "pKd": "below the threshold"}
    ]},
    {"molecular_target": "T11, NHERF3_1, Q5T2W1", "T11 sequence (Q5T2W1 4-100, limits assumed, looked up)": "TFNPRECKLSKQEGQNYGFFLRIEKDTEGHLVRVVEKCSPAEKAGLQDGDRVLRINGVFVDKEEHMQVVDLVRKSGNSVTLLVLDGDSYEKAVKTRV", "assay": "holdup assay", "set-up": "key: below the threshold = too weak to quantify, mostly under pKd 3.1 to 4", "conditions": "plain residues with an end cap or a label only (N-terminal biotin on a linker: ado-ado)", "values": [
      {"binder": "RQKEVRESKC", "note": "[SCN8A, Q9UQD0]", "pKd": 4.71}
    ]},
    {"molecular_target": "NHERF4_1, Q86UT5-2", "sequence (Q86UT5 other isoform, or with tags, fused parts or gaps)": "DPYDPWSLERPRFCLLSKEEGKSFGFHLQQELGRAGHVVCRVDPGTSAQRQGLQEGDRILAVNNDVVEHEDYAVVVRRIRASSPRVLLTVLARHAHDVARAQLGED", "assay": "holdup assay", "set-up": "key: below the threshold = too weak to quantify, mostly under pKd 3.1 to 4", "conditions": "plain residues with an end cap or a label only (N-terminal biotin on a linker: ado-ado)", "values": [
      {"binder": "RQKEVRESKC", "note": "[SCN8A, Q9UQD0]", "pKd": 3.91}
    ]},
    {"molecular_target": "T12, PTPN13_1, Q12923", "T12 sequence (Q12923 1088-1188, limits assumed, looked up)": "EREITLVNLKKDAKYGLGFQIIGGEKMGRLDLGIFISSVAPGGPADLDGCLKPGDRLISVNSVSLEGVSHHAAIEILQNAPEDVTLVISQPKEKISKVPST", "assay": "holdup assay", "set-up": "key: below the threshold = too weak to quantify, mostly under pKd 3.1 to 4", "conditions": "plain residues with an end cap or a label only (N-terminal biotin on a linker: ado-ado)", "values": [
      {"binder": "RQKEVRESKC", "note": "[SCN8A, Q9UQD0]", "pKd": "below the threshold"}
    ]},
    {"molecular_target": "PTPN3, P26045", "sequence (P26045 505-587)": "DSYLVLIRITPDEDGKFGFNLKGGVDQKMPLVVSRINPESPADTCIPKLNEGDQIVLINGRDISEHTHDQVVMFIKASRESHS", "assay": "holdup assay", "set-up": "key: below the threshold = too weak to quantify, mostly under pKd 3.1 to 4", "conditions": "plain residues with an end cap or a label only (N-terminal biotin on a linker: ado-ado)", "values": [
      {"binder": "RQKEVRESKC", "note": "[SCN8A, Q9UQD0]", "pKd": 4.6}
    ]},
    {"molecular_target": "SCRIB_2, Q14160", "sequence (Q14160 857-960)": "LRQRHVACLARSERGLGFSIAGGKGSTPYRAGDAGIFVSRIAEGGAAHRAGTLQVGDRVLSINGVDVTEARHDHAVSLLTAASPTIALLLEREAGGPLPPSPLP", "assay": "holdup assay", "set-up": "key: below the threshold = too weak to quantify, mostly under pKd 3.1 to 4", "conditions": "plain residues with an end cap or a label only (N-terminal biotin on a linker: ado-ado)", "values": [
      {"binder": "RQKEVRESKC", "note": "[SCN8A, Q9UQD0]", "pKd": 3.82}
    ]},
    {"molecular_target": "SCRIB_3, Q14160", "sequence (Q14160 999-1103)": "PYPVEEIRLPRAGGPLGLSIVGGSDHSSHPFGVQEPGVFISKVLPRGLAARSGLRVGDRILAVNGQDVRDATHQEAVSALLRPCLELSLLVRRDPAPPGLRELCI", "assay": "holdup assay", "set-up": "key: below the threshold = too weak to quantify, mostly under pKd 3.1 to 4", "conditions": "plain residues with an end cap or a label only (N-terminal biotin on a linker: ado-ado)", "values": [
      {"binder": "RQKEVRESKC", "note": "[SCN8A, Q9UQD0]", "pKd": 4.16}
    ]},
    {"molecular_target": "TJP2_1, Q9UDY2", "sequence (Q9UDY2 24-128)": "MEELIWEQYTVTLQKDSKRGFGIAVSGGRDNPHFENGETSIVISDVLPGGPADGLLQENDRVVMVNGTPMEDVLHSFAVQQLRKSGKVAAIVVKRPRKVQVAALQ", "assay": "holdup assay", "set-up": "key: below the threshold = too weak to quantify, mostly under pKd 3.1 to 4", "conditions": "plain residues with an end cap or a label only (N-terminal biotin on a linker: ado-ado)", "values": [
      {"binder": "RQKEVRESKC", "note": "[SCN8A, Q9UQD0]", "pKd": "below the threshold"}
    ]}
  ]
}
